The record followed here is article PMC5227068, “Pathogenicity Determinants of the Human Malaria Parasite Plasmodium falciparum Have Ancient Origins” (mSphere, 2017).

What all share (details): both partners purified
Experiment [1] has as its target T1, recombinant human endothelial protein C receptor (human, UniProt Q9UNN8 18-238).
T1 construct: endothelial protein C receptor, human, recombinant; also called EPCR; human EPCR
T1 sequence (looked up): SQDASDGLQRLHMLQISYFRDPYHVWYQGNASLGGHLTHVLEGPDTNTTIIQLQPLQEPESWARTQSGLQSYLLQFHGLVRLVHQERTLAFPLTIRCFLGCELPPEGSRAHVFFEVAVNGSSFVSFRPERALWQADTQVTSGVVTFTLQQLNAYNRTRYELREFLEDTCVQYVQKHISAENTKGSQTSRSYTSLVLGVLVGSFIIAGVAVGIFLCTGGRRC
The experiment is described as follows: BLI; Octet Qke; EPCR on the biosensor, CIDR domain in solution; protocol as reported previously (ref. 40); double-reference subtracted data fitted to a 1:1 binding model.

Experiment [2] has as its target P. reichenowi var71 CIDRα1.4 (Plasmodium reichenowi). The experiment is described as follows: BLI; Octet Qke; CIDR domains on recombinant human EPCR, protocol as reported previously (ref. 40); 1:1 fit.
Experiment [3] concerns the target T2, P. reichenowi CDO61774.1 CIDRα1.4 (Plasmodium reichenowi, UniProt A0A060RM78 1-3575).
T2 construct: CIDRα1.4 domain of the P. reichenowi erythrocyte membrane protein 1 (PrEMP1) of entry CDO61774.1; Construct His6-MBP-TEV-CIDR-StrepII; also called P. reichenowi CD061774.1 CIDRα1.4; Pr CDO61774.1 CIDRα1.4; source: pSHuffle expression hosts (New England Biolabs), purified (two-step process); not shown: StrepII, C-terminal, kept
The experiment is described as above.

The target in experiment [4] is T3, P. reichenowi CDO62090.1 CIDRα1.4 (Plasmodium reichenowi, UniProt A0A060RMQ3 1-4072).
T3 construct: CIDRα1.4 domain of the P. reichenowi erythrocyte membrane protein 1 (PrEMP1) of entry CDO62090.1; Construct His6-MBP-TEV-CIDR-StrepII; also called Pr CDO62090.1 CIDRα1.4; source: pSHuffle expression hosts (New England Biolabs), purified (two-step process); not shown: StrepII, C-terminal, kept
The experiment is described as above.

B1: P. reichenowi CDO62090.1 CIDRα1.4 (domain or fragment)
chain: TKINVLYSGDKQGDITQKLQNFCSDENKENGTNYQKWECYYKDEKQNKCKMDKTSGKNMTEDKIMSFDEFFYSWVTNFLIDTINWENELKNCMNNTILTDCNDGCKINCVCFDKWVKQKENEWENVKKVFENKNGISDNYYNKLKYIFEGFFFQVLYKLNQDEAKWNQLKQKLKEIIVSSKANTGKEHSQDAIKPLLEYIKEKSTICKDNNTN
With B1, in experiment [1], the koff was determined as 0.000443 s⁻¹ and the kon turned out to be 7350 M⁻¹ s⁻¹.

B2: P. reichenowi CDO61774.1 CIDRα1.4 (domain or fragment)
chain: TEIKVIVSGNEQGDISKKLEDFCSDENNENGKNYQKWECYYKSSQNNKCKMETKSGTSITEEKVTSFDAFFDLWVKNLLRDSIKWETELKDCINNSNVTDCNNDCNKNCVCFDKWVKQKEEVWKNMKTVLGNQKENLDNYYNKLNGLFKGFFFPVMFELNHDEAKWNKLMENLKKKIESSKENRGTVNSQDAIELLLEYLKEKSTICKDNNTN
For the molecule B2, in experiment [1], the Kd amounted to 6.2 nM, the koff stood at 0.000293 s⁻¹ and the kon was 47300 M⁻¹ s⁻¹.

B3: recombinant human EPCR (receptor)
chain: SQDASDGLQRLHMLQISYFRDPYHVWYQGNASLGGHLTHVLEGPDTNTTIIQLQPLQEPESWARTQSGLQSYLLQFHGLVRLVHQERTLAFPLTIRCFLGCELPPEGSRAHVFFEVAVNGSSFVSFRPERALWQADTQVTSGVVTFTLQQLNAYNRTRYELREFLEDTCVQYVQKHISAENTKGSQTSRSYTS
As for B3, the Kd in experiment [2] is 23 nM.

B4: recombinant human EPCR (receptor)
chain: B3 chain
modifications: construct limits not given; taken as the soluble extracellular domain after the signal peptide, from the candidate's features
For B4, the Kd in experiment [3] stood at 6 nM; in experiment [4], 60 nM.
